In paper PMC6070888:
Where two headings read alike, the source gives them in different places.

Target: T1, ZafA ZF3-6 (Aspergillus fumigatus) (UniProt Q4WT96)
T1 sequence: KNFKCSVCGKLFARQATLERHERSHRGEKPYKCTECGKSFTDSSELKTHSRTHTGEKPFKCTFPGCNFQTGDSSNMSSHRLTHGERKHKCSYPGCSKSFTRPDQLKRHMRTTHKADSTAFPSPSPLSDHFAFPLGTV
Assay: EMSA

| Sequence | binding (EMSA buffer 25 mM Tris-HCl pH 8, 50 mM KCl, 1 mM MgCl2, 12.5% glycerol, 1 mM DTT, 0.2 ug BSA, protein dialyzed in buffer with 10 uM ZnCl2, 30 C (EMSA 1 h …)) | binding |
| --- | --- | --- |
| ATGTCCGCACGGAGAGCCACAAACGAGCGGGGCCCCGTACGTGCTCTCCTACCCCAGGATCGCATCCCCGCATAGCTGAACATCTATATAAAGACCCCCAAGGTTCTCAGTCTCACCAACATCATCAACCAACAATCAACAGTTCTCTACTCAGTTAATTAGAACTCTTCCAATCCTATCACCTCGCCTCACCATGGCCATCTAGAGGTACCA (double strand) [PalcA wild type 213 bp EMSA fragment] | binds |  |
| TGGTACCTCTAGATGGCCATGGTGAGGCGAGGTGATAGGATTGGAAGAGTTCTAATTAACTGAGTAGAGAACTGTTGATTGTTGGTTGATGATGTTGGTGAGACTGAGAACTGAGGGGGTCTTTATATAGATGTTCAGCTATGCGGGGATGCGATCCTGGGGTAGGAGAGCACGTACGGGGCCCCGCTCGTTTGTGGCTCTCCGTGCGGACAT (double strand) [PalcA mutant (CAAGGT to CTCAGT)] |  | no binding |
